Laboratory results taken from patent US20120252756A1, “Pharmaceutical Compositions and Methods for Treating, Controlling, Ameliorating, or Reversing Conditions of the Eye” (priority 2010, published 2012).

Tests used:
[1] = test system: Riken human corneal epithelial cell line (RT-HCEpiC); assay: Monolayer scratch assay (corneal re-epithelization); assay type: cell-based; settings: 10 ng/mL; 16 hours after wounding
Experimental: A single horizontal scratch was made to the HCEpiC monolayer. Cells were then incubated with PEG 3350 or HPMC 2910 in basal culture medium. Wound healing was calculated as the difference in the gap width between baseline measurements and after 16-hour incubation and is expressed as percentage gap closure. Bars represent the difference in the gap width between baseline measurements and after 16-hour incubation with treatment groups (n=3); lines on bars represent the standard error of the means. Raw data were analyzed with a one-way ANOVA followed by the Dunnett's Method test. * denotes statistical significance versus vehicle control; p<0.05.
We have developed an in vitro wound healing model using transformed human corneal epithelial cells insulted with a scratch to the monolayer and monitored for growth into the resulting cell-free gap. […]
Cells were examined and photographed after scratch and after 16 hours incubation with treatment to monitor closure of the cell-free gap using a light microscope. The percent closure was determined using the following equation. […]
Comparisons were made between treatment groups and the vehicle controls to determine the effect of the treatment on re-epithelization. […] All data was analyzed utilizing the statistical analysis software JMP (SAS Institute, Cary, N.C.).

[2] = test system: Akt; assay: Western blot of Akt phosphorylation in RT-HCEpiC; assay type: cell-based, human; settings: 10 ng/mL for 10 minutes
Experimental: (§1) Human corneal epithelial cells (HCEpiC) were treated with 10% PEG-3350 in serum-free media over the course of 16 hours in an attempt to understand the molecular mechanisms behind the observed positive effect on corneal re-epithelization. Cell lysates were collected and assessed for protein activation by western blot using antibodies targeting key phosphorylation sites.
(§2) FIG. 11 is a graphical representation of peak phosphorylation time points for pAkt, pERK, and pEGFR. […] Cell lysates were collected and assessed for protein activation by western blot using antibodies targeting key phosphorylation sites. […] Ratio of phosphorylated protein to total, non-phosphorylated was quantified by densitometry.
(§3) RT-HCEpiC cell suspensions (2.5×10^5 cells/ml) were prepared in complete medium with 10% Fetal Bovine Serum (“FBS”) and added to each well of a 6-well plate, 2.5 mL suspension per well. […] Cell lysates were assayed for protein concentration and evaluated for Akt, ERK, EGFR, and PI3K activation by Western blot.
(§4) Culture medium was aspirated from each well and cells were washed with cold, non-sterile PBS twice. […] Cell lysates were assayed for protein concentration and analyzed by western blot. […]
(§5) Western Blot: Analysis of Western blot band density in captured and stored digital images was done using the Quantity One software on the VersaDod MP 4000. Density of bands was quantified. […]

[3] = test system: PI3K; assay: Western blot of PI3K phosphorylation in RT-HCEpiC; assay type: cell-based, human; settings: 10 ng/mL for 10 minutes
Experimental: as §1
RT-HCEpiC cell suspensions (2.5×10^5 cells/ml) were prepared in complete medium with 10% Fetal Bovine Serum (“FBS”) and added to each well of a 6-well plate, 2.5 mL suspension per well. When cells reached confluence, they were serum starved overnight in basal DMEM/F12. Treatments were delivered in basal medium; treatments include control, 10 ng/mL HB-EGF (Heparin-bi-binding EGF-like growth factor) for 10 minutes; or 10% PEG-3350 for 10, 15, 20, 30 minutes, 1, 2, 4, 6, or 16 hours. Cell lysates were assayed for protein concentration and evaluated for Akt, ERK, EGFR, and PI3K activation by Western blot.
as §4, §5

[4] = test system: ERK; assay: Western blot of ERK phosphorylation in RT-HCEpiC; assay type: cell-based, human; settings: 10 ng/mL for 10 minutes
Experimental: as §1, §2, §3, §4, §5

[5] = test system: EGFR; assay: Western blot of EGFR phosphorylation in RT-HCEpiC; assay type: cell-based, human; settings: 10 ng/mL for 10 minutes
Experimental: as §1, §2, §3, §4, §5

B1: Heparin-binding EGF-like growth factor (protein, UniProt Q99075 63-148, looked up)
Heparin-binding EGF-like …: DLQEADLDLLRVTLSSKPQALATPNKEEHGKRKKKGKGLGKKRDPCLRKYKDFCIHGECKYVKELRAPSCICHPGYHGERCHGLSL
notes: growth factor used as positive assay control
corneal re-epithelization (percent gap closure) versus vehicle control [1]: significantly increased
phosphorylation of Akt [2]: substantially increased
pPI3K [3]: no effect
phosphorylation of ERK [4]: substantially increased
phosphorylation of EGFR [5]: substantially increased
